The source of these data is patent US20230265179A1 (TWIST BIOSCIENCE, published 2023).

Test [1] deals with T1, TSLP on over-expressing Expi293 cells (UniProt Q969D9 29-159, limits assumed).
T1 construct: whole, on cells; Target of the flow cytometry assay; also called cytokine over-expressing Expi293 cells
Description: flow cytometry titration on TSLP over-expressing Expi293 cells.
Description: (§1) All incubations and washes were in buffer containing PBS+1% BSA. MFI Ratio is defined by the mean fluorescence intensity (MFI) of the cytokine over-expressing Expi293 cell over the Expi293 parent cell. […] EC50 was calculated in GraphPad Prism.

The target in another test is T2, TSLP (UniProt Q969D9 29-159).
T2 construct: Soluble analyte of the SPR assay
Description: SPR, Carterra LSA, antibody amine-coupled, 1:1 model.

Test [2] addresses T1, TSLP on over-expressing Expi293 cells. Description: flow cytometry, 100 nM, TSLP over-expressing Expi293 over parent cells. A general note: A flow cytometer gives signals particle by particle.
Description: as §1

B1: TSLP-38 (VHH)
VHH: EVQLVESGGGLVQPGGSLRLSCAASGFSLDYYAMGWFRQAPGKERELVSAIFSDGSALYADSVKGRFTISADNSKNTAYLQMNSLKPEDTAVYYCAKDRDTGIGAYDWGQGTLVTVSS
notes: VHH-Fc (IgG2 Fc); not shown: IgG2 Fc of the VHH-Fc format
The molecule B1 returned an EC50 in test [1] of 0.31 nM. Moreover, in the test with TSLP, binding was put at a Kd of 10.1 nM, the koff amounted to 0.000487 s⁻¹ and the kon is 48300 M⁻¹ s⁻¹. In addition, the “100 nM (MFI Ratio)” value in test [2] is 89.3 MFI ratio.

B2: TSLP-36 (VHH)
VHH: EVQLVESGGGLVQPGGSLRLSCAASGGTLDDYVMGWFRQAPGKEREFVGFIGSDGSTLYADSVKGRFTISADNSKNTAYLQMNSLKPEDTAVYYCTTEWDGYWGQGTLVTVSS
notes: as for B1
In test [1], B2 gave an EC50 of 0.11 nM. In addition, in the test with TSLP, the affinity, expressed as Kd, was 3.39 nM; the koff was found to be 0.000487 s⁻¹; the kon turned out to be 144000 M⁻¹ s⁻¹. In addition, the “100 nM (MFI Ratio)” value in test [2] came to 100 MFI ratio.

B3: TSLP-22 (VHH)
VHH: EVQLVESGGGLVQPGGSLRLSCAASGRTFRSYVMGWFRQAPGKERELVSAIFSDGSTLYADSVKGRFTISADNSKNTAYLQMNSLKPEDTAVYYCAREDSSSGWFDYWGQGTLVTVSS
notes: as for B1
With B3, the EC50 in test [1] was 0.66 nM. In the test with TSLP, the Kd is 12.1 nM, the koff was found to be 0.00106 s⁻¹ and the kon is 88200 M⁻¹ s⁻¹. Moreover, the “100 nM (MFI Ratio)” value in test [2] came to 90.4 MFI ratio.

B4: TSLP-21 (VHH)
VHH: EVQLVESGGGLVQPGGSLRLSCAASGNIFSRYIMGWFRQAPGKERELVSAIFSDGSTLYADSVKGRFTISADNSKNTAYLQMNSLKPEDTAVYYCAKGGYSSGWFDYWGQGTLVTVSS
notes: as for B1
With B4, in the test with TSLP, the Kd came to 10.6 nM, the koff is 0.00113 s⁻¹ and the kon was 106000 M⁻¹ s⁻¹. Besides, the “100 nM (MFI Ratio)” value in test [2] is 0.7 MFI ratio.

B5: TSLP-26 (VHH)
VHH: EVQLVESGGGLVQPGGSLRLSCAASGLTFSSYIMGWFRQAPGKERELVSAIFSDGSTLYADSVKGRFTISADNSKNTAYLQMNSLKPEDTAVYYCARDDYGGNFFDYWGQGTLVTVSS
notes: as for B1
B5 showed an EC50 in test [1] of 3.37 nM. In the test with TSLP, this molecule displayed a Kd of 5.09 nM, a koff of 0.000228 s⁻¹ and a kon of 44700 M⁻¹ s⁻¹. In addition, the “100 nM (MFI Ratio)” value in test [2] came to 313 MFI ratio.

B6: TSLP-11 (VHH)
VHH: EVQLVESGGGLVQPGGSLRLSCAASGFTFDDSDMGWFRQAPGKEREFVGAISWSGDSTYYKYYADSVKGRFTISADNSKNTAYLQMNSLKPEDTAVYYCANQYGWGQGTLVTVSS
notes: as for B1
Take B6: in the test with TSLP, the Kd worked out at 9.67 nM, the koff came to 0.000433 s⁻¹ and the kon was found to be 44700 M⁻¹ s⁻¹. Further, the “100 nM (MFI Ratio)” value in test [2] worked out at 157 MFI ratio.

B7: TSLP-3 (VHH)
VHH: EVQLVESGGGLVQPGGSLRLSCAASGRIFSTYFMGWFRQAPGKERELVSAIFSDGSTYYADSVKGRFTISADNSKNTAYLQMNSLKPEDTAVYYCALDLSTVRWGQGTLVTVSS
notes: as for B1
Regarding B7, the EC50 in test [1] is 0.37 nM. Also, in the test with TSLP, binding was characterised by a dissociation constant (Kd) of 19.1 nM, the koff came out at 0.00114 s⁻¹ and the kon amounted to 59900 M⁻¹ s⁻¹. In addition, in test [2], the “100 nM (MFI Ratio)” value is 80.1 MFI ratio.

B8: TSLP-23 (VHH)
VHH: EVQLVESGGGLVQPGGSLRLSCAASGRIFSTYFMGWFRQAPGKERELVSAIFSDGSTYYADSVKGRFTISADNSKNTAYLQMNSLKPEDTAVYYCALDLSTVRWGQGTLVTVSS
notes: as for B1
In test [1], B8 had an EC50 of 0.12 nM. In the test with TSLP, the Kd is 19.1 nM, the koff is 0.00131 s⁻¹ and the kon came to 68500 M⁻¹ s⁻¹. Moreover, in test [2], the “100 nM (MFI Ratio)” value amounted to 226 MFI ratio.

B9: TSLP-35 (VHH)
VHH: EVQLVESGGGLVQPGGSLRLSCAASGCIFSTYFMGWFRQAPGKERELVSAIFSDGSTYYADSVKGRFTISADNSKNTAYLQMNSLKPEDTAVYYCALDWNLNRWGQGTLVTVSS
notes: as for B1
For the molecule B9, the midpoint of the response in test [1], the EC50, lay at 0.28 nM. In the test with TSLP, this molecule gave a Kd of 20 nM, a koff of 0.00145 s⁻¹ and a kon of 72600 M⁻¹ s⁻¹. The “100 nM (MFI Ratio)” value in test [2] amounted to 108 MFI ratio.

B10: TSLP-12 (VHH)
VHH: EVQLVESGGGLVQPGGSLRLSCAASGFIFSSYWMGWFRQAPGKERELVSAIFSDGSTYYADSVKGRFTISADNSKNTAYLQMNSLKPEDTAVYYCAIDWYLNSWGQGTLVTVSS
notes: as for B1
B10 yielded an EC50 in test [1] of 0.5 nM. In the test with TSLP, this molecule registered a Kd of 13.9 nM, a koff of 0.00137 s⁻¹ and a kon of 98700 M⁻¹ s⁻¹. In test [2], the “100 nM (MFI Ratio)” value is 76.2 MFI ratio.

B11: TSLP-14 (VHH)
VHH: EVQLVESGGGLVQPGGSLRLSCAASGSIFSSYWMGWFRQAPGKERELVSAIFSDGSTYYADSVKGRFTISADNSKNTAYLQMNSLKPEDTAVYYCAKDYFGTGWGQGTLVTVSS
notes: as for B1
Consider B11, for which, in test [1], the EC50 was found to be 0.18 nM. In the test with TSLP, the Kd was found to be 31.4 nM, the koff came out at 0.0016 s⁻¹ and the kon came to 51000 M⁻¹ s⁻¹. Further, the “100 nM (MFI Ratio)” value in test [2] came out at 20.3 MFI ratio.

B12: TSLP-18 (VHH)
VHH: EVQLVESGGGLVQPGGSLRLSCAASGNIFTRNIMCWFRQAPGKEREGVSCISTGDGSTYYADSVKGRFTISADNSKNTAYLQMNSLKPEDTAVYYCAADSETSGNWVWGQGTLVTVSS
notes: as for B1
Consider B12, for which, in the test with TSLP, the Kd was determined as 22.3 nM, the koff amounted to 0.00178 s⁻¹ and the kon stood at 79700 M⁻¹ s⁻¹. Also, in test [2], the “100 nM (MFI Ratio)” value worked out at 5.1 MFI ratio.

B13: TSLP-20 (VHH)
VHH: EVQLVESGGGLVQPGGSLRLSCAASGFKLGYYAMGWFRQAPGKEREGVATIAGGTTYYADSVKGRFTISADNSKNTAYLQMNSLKPEDTAVYYCAAIGWRWGQGTLVTVSS
notes: as for B1
For B13, in the test with TSLP, binding was put at a Kd of 27.7 nM, the koff stood at 0.00209 s⁻¹ and the on-rate (kon) was 75300 M⁻¹ s⁻¹. Moreover, in test [2], the “100 nM (MFI Ratio)” value turned out to be 2.5 MFI ratio.

B14: TSLP-32 (VHH)
VHH: EVQLVESGGGLVQPGGSLRLSCAASGNSFNNYVMGWFRQAPGKEREMVSAIFSDGSTYYADSVKGRFTISADNSKNTAYLQMNSLKPEDTAVYYCVRDSGSVSGQTFDSWGQGTLVTVSS
notes: as for B1
B14 gave an EC50 in test [1] of 0.45 nM. Further, in the test with TSLP, the Kd amounted to 7.24 nM, the koff is 0.00121 s⁻¹ and the kon was found to be 167000 M⁻¹ s⁻¹. The “100 nM (MFI Ratio)” value in test [2] turned out to be 195 MFI ratio.

B15: TSLP-120 (antibody, V domains shown)
VH: QVQLVQSGAEVKKPGSSVKVSCKASGGTFSTYAISWVRQAPGQGLEWMGGIISINYAQKFQGRVTITADESTSTAYMELSSLRSEDTAVYYCAWGAKYALDSWGQGTLVTVSS
VL: DIQMTQSPSSLSASVGDRVTITCRASQTIGTYLNWYQQKPGKAPKLLIYSASSLQSGVPSRFSGSGSGTDFTLTISSLQPEDFATYYCQQTDGNPPTFGQGTKVEIK
In the test with TSLP, B15 came in with a Kd of 0.223 nM, a koff of 0.000181 s⁻¹ and a kon of 809000 M⁻¹ s⁻¹. The “100 nM (MFI Ratio)” value in test [2] worked out at 21.2 MFI ratio.

B16: TSLP-41 (VHH)
VHH: EVQLVESGGGLVQPGGSLRLSCAASGRTFSAHSVYTMGWFRQAPGKEREWVSAIFSDGDTYYADSVKGRFTISADNSKNTAYLQMNSLKPEDTAVYYCAIDEGMDYDGNFYDWGQGTLVTVSS
notes: as for B1
In the test with TSLP, B16 showed a Kd of 10.8 nM, a koff of 0.00177 s⁻¹ and a kon of 164000 M⁻¹ s⁻¹. Besides, the “100 nM (MFI Ratio)” value in test [2] was 12.3 MFI ratio.

B17: TSLP-7 (VHH)
VHH: EVQLVESGGGLVQPGGSLRLSCAASGLTFGTHVMGWFRQAPGKERELVTAINPAALTTYYADSVKGRFTISADNSKNTAYLQMNSLKPEDTAVYYCARDFWSAGDSWGQGTLVTVSS
notes: as for B1
With B17, in the test with TSLP, the Kd turned out to be 5.12 nM, the koff stood at 0.000351 s⁻¹ and the kon came out at 68500 M⁻¹ s⁻¹. In test [2], the “100 nM (MFI Ratio)” value stood at 1.6 MFI ratio.

B18: TSLP-30 (VHH)
VHH: EVQLVESGGGLVQPGGSLRLSCAASGRTFSTYGMGWFRQAPGKEREFVAAMISWNGGSSTYYADSVKGRFTISADNSKNTAYLQMNSLKPEDTAVYYCTTDPAEFYDSSTYYPAPFDYWGQGTLVTVSS
notes: as for B1
B18 gave an EC50 in test [1] of 0.43 nM. In the test with TSLP, binding was characterised by a dissociation constant (Kd) of 63.2 nM, the koff is 0.000996 s⁻¹ and the kon stood at 15800 M⁻¹ s⁻¹. In addition, in test [2], the “100 nM (MFI Ratio)” value amounted to 105 MFI ratio.

B19: TSLP-6 (VHH)
VHH: EVQLVESGGGLVQPGGSLRLSCAASGMTFSSYVMGWFRQAPGKEREFVGEIILSKGFTYYADSVKGRFTISADNSKNTAYLQMNSLKPEDTAVYYCASGPGYYDSSAYYLYAFDIWGQGTLVTVSS
notes: as for B1
In the test with TSLP, B19 returned a Kd of 19.4 nM, a koff of 0.000672 s⁻¹ and a kon of 34700 M⁻¹ s⁻¹. For the same molecule, the “100 nM (MFI Ratio)” value in test [2] was found to be 178 MFI ratio.

B20: TSLP-15 (VHH)
VHH: EVQLVESGGGLVQPGGSLRLSCAASGFILDDYAMGWFRQAPGKEREFVATIAGGYTYYADSVKGRFTISADNSKNTAYLQMNSLKPEDTAVYYCPVFDGYTRIHWGQGTLVTVSS
notes: as for B1
Consider B20, for which the “100 nM (MFI Ratio)” value in test [2] was determined as 1.5 MFI ratio.

B21: TSLP-4 (VHH)
VHH: EVQLVESGGGLVQPGGSLRLSCAASGFTFSSYWMGWFRQAPGKERELVSAIFSDGSTMYADSVKGRFTISADNSKNTAYLQMNSLKPEDTAVYYCTRDSTDTRYWGQGTLVTVSS
notes: as for B1
In test [1], B21 displayed an EC50 of 0.18 nM. In the test with TSLP, this molecule gave a Kd of 7.14 nM, a koff of 0.000542 s⁻¹ and a kon of 75900 M⁻¹ s⁻¹. The “100 nM (MFI Ratio)” value in test [2] worked out at 157 MFI ratio.

B22: TSLP-24 (VHH)
VHH: EVQLVESGGGLVQPGGSLRLSCAASGGIFSINDIGWFRQAPGKEREFVAALSWIIGSGVYTYYADSVKGRFTISADNSKNTAYLQMNSLKPEDTAVYYCANEYGWGQGTLVTVSS
notes: as for B1
In the test with TSLP, B22 came in with a Kd of 10.2 nM, a koff of 0.000445 s⁻¹ and a kon of 43600 M⁻¹ s⁻¹. Besides, in test [2], the “100 nM (MFI Ratio)” value is 1.3 MFI ratio.

One may read the EC50 as the concentration that produces a half-maximal response. Lower therefore signals greater potency. As a reminder, the Kd is the free concentration of one partner at which half of the binding sites on the other are occupied at equilibrium, for simple one-to-one binding. Low values mean higher affinity, high ones lower affinity. One may read the koff as the first-order rate constant of dissociation. A higher koff goes with a short-lived complex. As usually defined, the kon is the second-order rate constant of association. Read a low kon as slow association.
